Molecular target: FasR on T-cells (Jurkat cells) (UniProt P25445)
Experiment: cell-based or functional assay

Chain of streptavidin-FasL (P22629 37-163): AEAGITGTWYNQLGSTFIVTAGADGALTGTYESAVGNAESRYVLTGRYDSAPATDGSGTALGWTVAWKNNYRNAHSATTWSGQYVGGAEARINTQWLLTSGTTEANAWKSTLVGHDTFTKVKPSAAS
Chain of FasR on T-cells (Jurkat cells) (P25445 26-335 limits assumed): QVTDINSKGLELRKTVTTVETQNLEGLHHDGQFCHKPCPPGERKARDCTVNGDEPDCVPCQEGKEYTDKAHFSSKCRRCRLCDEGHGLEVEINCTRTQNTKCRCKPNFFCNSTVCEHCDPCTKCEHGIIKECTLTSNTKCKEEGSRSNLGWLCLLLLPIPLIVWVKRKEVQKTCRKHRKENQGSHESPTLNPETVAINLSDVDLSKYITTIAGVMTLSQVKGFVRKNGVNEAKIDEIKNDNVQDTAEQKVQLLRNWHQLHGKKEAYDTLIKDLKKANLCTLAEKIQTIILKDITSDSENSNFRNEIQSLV

Work on “streptavidin-FasL (from UniProt P22629 37-163) (ligand)” yielded an apoptosis in Jurkat cells, flow cytometry (Annexin V); SA-FasL tethered on exosomes, 1 µg exosome protein of 17.5% and an apoptosis in Jurkat cells, flow cytometry (Annexin V); SA-FasL tethered on exosomes, 20 µg exosome protein of 99.3%.

— US20220145291A1
